Source: US20110312897A1 (published 2011)
Where no end group is shown, it is not given here.

Experiments:
[1] = target: T1, non-cleaved H3 tail peptide (H3 18-37), methylated at K27 (not fully specified; methylated K27 (degree of methylation shown only in FIG. 7C); biotinylated for the pull-down); test: fluorescence anisotropy
T1 peptide: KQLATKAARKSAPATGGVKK

[2] = target: T2, cleaved H3 tail peptide (H3 22-37), methylated at K27 (not fully specified; also: K27 methylated, degree not given here, biotinylated, site not given here); test: fluorescence anisotropy
T2 peptide: TKAARK(Me)SAPATGGVKK

Kd [1]: 14.5 µM | Kd [2]: 44 µM
B1: chromodomain of mouse CBX7 (other)
chain: MELSAIGEQVFAVESIRKKRVRKGKVEYLVKWKGWPPKYSTWEPEEHILDPRLVMAYEEKEERDRASGYR
